Test results: patent US20140186371A1 (published 2014)

B1: mouse monoclonal antibody 6G1 (antibody, V domains shown)
VH: QIQLVQSGPELKKPGETVKISCKASGYTFTNYGMNWVKQAPGKDLKWMGWINTYTGEPRYADEFKGRFAFSLETSASTAYLQINNLKNEDMATYFCAKGGYPHYYSMDYWGQGTSVTVSS
VL: DIQMTQSTSSLSASLGDRVTISCRASQDINNYLNWYQQKPDGTIKLLIYYTSKLHSGVPSRFSGSGSGRDYSLTISNLEQEDIATYFCQQGNTLPRTFGGGTKLEIKR
B2: mouse monoclonal antibody 5D2 (antibody, V domains shown)
VH: EVQLQQSGPELVKPGASVKISCKASGYTFTDNYYMNWVKQSHGKSLEWIGHIYPNNGVTSYNQKFRGKATLTVDKSSNSAYMELRSLTSEDSALYYCARNKLLSLYWYFDVWGTGTSVTVSS
VL: DIQMTQSSSSFSVFLGDRITITCRASVDIYNRLAWFQQKPGNAPRLLISGATSLATGVPSRFSGSGSGKDYTLSITSLQTEDVTIYYCQQYWSTPWTFGGGTKLEIKR

Assays:
human iC3b [1] = biological target: T1, human iC3b (human, UniProt P01024 23-667; P01024 749-1303; P01024 1321-1663); assay: sandwich ELISA: chicken anti-C3 capture antibody on the plate, iC3b captured, A209 as detecting antibody, goat anti-mouse-HRP, ABTS
T1 construct: Bought purified protein; three chains held together by disulfide bonds; also called purified human iC3b (Complement Technology #A115)
T1 sequence (P01024 23-667 limits assumed, chain 1 of 3): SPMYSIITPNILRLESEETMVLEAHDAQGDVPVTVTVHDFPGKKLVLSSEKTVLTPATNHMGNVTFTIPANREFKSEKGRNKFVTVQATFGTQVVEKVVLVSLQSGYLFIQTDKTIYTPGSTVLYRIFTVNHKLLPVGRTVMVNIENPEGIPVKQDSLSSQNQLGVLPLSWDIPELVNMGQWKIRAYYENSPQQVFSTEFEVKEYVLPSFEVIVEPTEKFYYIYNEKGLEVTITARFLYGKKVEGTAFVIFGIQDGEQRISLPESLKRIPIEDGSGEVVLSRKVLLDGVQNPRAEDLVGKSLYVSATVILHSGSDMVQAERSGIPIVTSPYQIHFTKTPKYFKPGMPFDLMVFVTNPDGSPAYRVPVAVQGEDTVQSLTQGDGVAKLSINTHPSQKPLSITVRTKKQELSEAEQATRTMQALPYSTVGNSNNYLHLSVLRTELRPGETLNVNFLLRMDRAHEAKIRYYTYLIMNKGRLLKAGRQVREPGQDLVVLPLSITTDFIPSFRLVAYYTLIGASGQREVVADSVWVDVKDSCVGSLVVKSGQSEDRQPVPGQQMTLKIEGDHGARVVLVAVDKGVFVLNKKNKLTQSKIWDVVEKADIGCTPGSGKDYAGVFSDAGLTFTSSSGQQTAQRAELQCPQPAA
T1 sequence (P01024 749-1303 limits assumed, chain 2 of 3): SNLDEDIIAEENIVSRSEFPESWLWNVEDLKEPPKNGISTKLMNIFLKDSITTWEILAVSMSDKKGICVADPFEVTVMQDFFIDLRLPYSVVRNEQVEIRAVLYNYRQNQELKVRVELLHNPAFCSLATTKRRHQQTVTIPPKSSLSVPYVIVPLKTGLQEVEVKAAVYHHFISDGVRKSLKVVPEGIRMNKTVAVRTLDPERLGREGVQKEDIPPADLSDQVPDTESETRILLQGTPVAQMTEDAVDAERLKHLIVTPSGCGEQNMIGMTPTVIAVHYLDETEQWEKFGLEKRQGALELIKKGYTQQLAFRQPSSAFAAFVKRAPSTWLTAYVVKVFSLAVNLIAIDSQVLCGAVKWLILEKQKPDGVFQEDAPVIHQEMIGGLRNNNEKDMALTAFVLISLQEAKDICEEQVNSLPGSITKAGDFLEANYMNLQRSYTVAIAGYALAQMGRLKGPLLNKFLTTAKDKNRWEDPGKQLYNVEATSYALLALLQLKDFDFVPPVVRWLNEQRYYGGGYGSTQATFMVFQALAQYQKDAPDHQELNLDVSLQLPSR
T1 sequence (P01024 1321-1663 limits assumed, chain 3 of 3): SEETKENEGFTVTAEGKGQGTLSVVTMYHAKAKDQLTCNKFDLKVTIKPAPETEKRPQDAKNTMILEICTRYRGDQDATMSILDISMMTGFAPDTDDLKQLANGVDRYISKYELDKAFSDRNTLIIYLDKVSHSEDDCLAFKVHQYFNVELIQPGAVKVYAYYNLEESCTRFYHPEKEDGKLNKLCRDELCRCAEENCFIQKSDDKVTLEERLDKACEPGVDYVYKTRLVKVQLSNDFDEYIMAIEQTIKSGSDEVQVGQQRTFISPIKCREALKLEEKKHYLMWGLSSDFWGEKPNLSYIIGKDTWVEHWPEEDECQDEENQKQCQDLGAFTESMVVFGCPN

human iC3b [2] = biological target: T1, human iC3b; assay: Biacore (SPR); reference C3b
human iC3b [3] = biological target: T1, human iC3b; assay: sandwich ELISA; reference C3b
human iC3b [4] = biological target: T1, human iC3b; assay: Biacore, antibody captured on anti-mouse CM5 chip
human iC3b [5] = biological target: T1, human iC3b; assay: sandwich ELISA, antigen captured by chicken anti-C3 antibody
human C3 = biological target: T2, human C3 (human, UniProt P01024 23-667; P01024 672-1663); assay: Biacore, antibody captured on anti-mouse CM5 chip, antigen in solution
T2 construct: Bought purified protein; also called C3 (Complement Technology #A113)
T2 sequence (P01024 23-667, chain 1 of 2): as the sequence (P01024 23-667 limits assumed, chain 1 of 3) above
T2 sequence (P01024 672-1663, chain 2 of 2): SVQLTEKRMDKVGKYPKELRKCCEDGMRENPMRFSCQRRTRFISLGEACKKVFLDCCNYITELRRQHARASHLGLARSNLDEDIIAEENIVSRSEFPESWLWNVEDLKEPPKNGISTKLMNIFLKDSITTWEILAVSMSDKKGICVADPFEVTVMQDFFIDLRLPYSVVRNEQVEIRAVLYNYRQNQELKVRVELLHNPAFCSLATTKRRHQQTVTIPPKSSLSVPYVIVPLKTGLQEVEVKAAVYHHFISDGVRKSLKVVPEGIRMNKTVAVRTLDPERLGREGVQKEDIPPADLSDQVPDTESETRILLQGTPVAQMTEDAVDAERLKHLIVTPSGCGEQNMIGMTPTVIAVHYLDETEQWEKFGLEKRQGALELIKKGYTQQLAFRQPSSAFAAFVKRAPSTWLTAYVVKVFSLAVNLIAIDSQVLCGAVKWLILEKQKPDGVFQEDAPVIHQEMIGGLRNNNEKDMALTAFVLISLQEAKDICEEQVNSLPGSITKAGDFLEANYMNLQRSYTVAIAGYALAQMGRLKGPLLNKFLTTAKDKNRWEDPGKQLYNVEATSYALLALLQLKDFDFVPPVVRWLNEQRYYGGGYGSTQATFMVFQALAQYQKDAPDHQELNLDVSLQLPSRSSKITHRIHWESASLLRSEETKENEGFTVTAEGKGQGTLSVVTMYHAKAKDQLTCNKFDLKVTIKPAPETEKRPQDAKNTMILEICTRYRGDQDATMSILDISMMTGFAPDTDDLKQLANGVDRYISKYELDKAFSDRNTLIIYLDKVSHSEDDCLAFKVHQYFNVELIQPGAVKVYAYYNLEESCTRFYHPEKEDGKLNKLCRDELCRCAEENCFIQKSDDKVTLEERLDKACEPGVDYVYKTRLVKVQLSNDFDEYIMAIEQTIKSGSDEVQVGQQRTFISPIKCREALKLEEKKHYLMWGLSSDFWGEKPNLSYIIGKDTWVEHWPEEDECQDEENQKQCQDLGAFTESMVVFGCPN

human iC3b [6] = biological target: T1, human iC3b; assay: as above

| Molecule | EC50 (read off the curve) (human iC3b [1]) [µg/mL] | fold higher affinity constant for iC3b than C3b (human iC3b [2]) [fold] | fold higher affinity constant for iC3b than C3b (human iC3b [3]) [fold] | fold difference in KD, iC3b relative to C3 (human iC3b [4]) [fold] | fold specificity for iC3b vs. C3 or C3b (human iC3b [5]) [fold] | Kd (human C3) [µM] | Kd (human iC3b [6]) [µM] |
| --- | --- | --- | --- | --- | --- | --- | --- |
| A209 antibody (Quidel) | 0.03 |  |  |  |  |  |  |
| B1 |  | ≥ 10 | ≥ 2 | > 10 | > 2 | 2.1 | 0.0433 |
| B2 |  | ≥ 10 | ≥ 2 |  | > 2 |  |  |
